The values below come from PMC9765476, “Malic Enzyme, not Malate Dehydrogenase, Mainly Oxidizes Malate That Originates from the Tricarboxylic Acid Cycle in Cyanobacteria” (mBio, 2022).

Experiment in all cases: purified protein
Substrate in series [1]: O=C(O)C[C@H](O)C(=O)O
As to conditions: malate oxidation.

Substrate in series [2]: NC(=O)C1=CN([C@@H]2O[C@H](COP(=O)(O)OP(=O)(O)OC[C@H]3O[C@@H](n4cnc5c(N)ncnc54)[C@H](O)[C@@H]3O)[C@@H](O)[C@H]2O)C=CC1
In kind it is biochemical, Limnospira platensis. As to conditions: 0.5 mM oxaloacetate, pH 8.5, 50°C, reductive reaction, varied: cofactor.

Substrate in series [3]: NC(=O)c1ccc[n+]([C@@H]2O[C@H](COP(=O)(O)OP(=O)(O)OC[C@H]3O[C@@H](n4cnc5c(N)ncnc54)[C@H](O)[C@@H]3O)[C@@H](O)[C@H]2O)c1
Format: biochemical, Limnospira platensis. To be noted: 1 mM malate, pH 8.5, 50°C, malate oxidation, varied: cofactor.

Substrate in series [4]: O=C(O)CC(=O)C(=O)O
In kind it is biochemical, Limnospira platensis. To be noted: 0.1 mM NADH, pH 8.5, 50°C, reductive reaction.

Substrate in series [5]: NC(=O)c1ccc[n+]([C@@H]2O[C@H](COP(=O)(O)OP(=O)(O)OC[C@H]3O[C@@H](n4cnc5c(N)ncnc54)[C@H](OP(=O)(O)O)[C@@H]3O)[C@@H](O)[C@H]2O)c1
In kind it is biochemical, Synechocystis sp. PCC 6803. To be noted: 3 mM malate, 100 mM NH4Cl, 0.5 mM MnCl2, pH 8.3, 50°C, malate oxidation, varied: cofactor.

Substrate in series [6]: NC(=O)C1=CN([C@@H]2O[C@H](COP(=O)(O)OP(=O)(O)OC[C@H]3O[C@@H](n4cnc5c(N)ncnc54)[C@H](O)[C@@H]3O)[C@@H](O)[C@H]2O)C=CC1
In kind it is biochemical, Synechocystis sp. PCC 6803. As to conditions: 0.5 mM oxaloacetate, pH 8.0, 50°C, reductive reaction, varied: cofactor.

Substrate in series [7]: NC(=O)c1ccc[n+]([C@@H]2O[C@H](COP(=O)(O)OP(=O)(O)OC[C@H]3O[C@@H](n4cnc5c(N)ncnc54)[C@H](O)[C@@H]3O)[C@@H](O)[C@H]2O)c1
Format: biochemical, Synechocystis sp. PCC 6803. To be noted: 4 mM malate, pH 8.0, 50°C, malate oxidation, varied: cofactor.

Substrate in series [8]: O=C(O)CC(=O)C(=O)O
In kind it is biochemical, Synechocystis sp. PCC 6803. To be noted: 0.1 mM NADH, pH 8.0, 50°C, reductive reaction.

Substrate in series [9]: NC(=O)C1=CN([C@@H]2O[C@H](COP(=O)(O)OP(=O)(O)OC[C@H]3O[C@@H](n4cnc5c(N)ncnc54)[C@H](O)[C@@H]3O)[C@@H](O)[C@H]2O)C=CC1
In kind it is biochemical, Nostoc sp. PCC 7120 = FACHB-418. As to conditions: 0.1 mM oxaloacetate, pH 9.0, 50°C, reductive reaction, varied: cofactor.

Substrate in series [10]: NC(=O)c1ccc[n+]([C@@H]2O[C@H](COP(=O)(O)OP(=O)(O)OC[C@H]3O[C@@H](n4cnc5c(N)ncnc54)[C@H](O)[C@@H]3O)[C@@H](O)[C@H]2O)c1
Format: biochemical, Nostoc sp. PCC 7120 = FACHB-418. As to conditions: 5 mM malate, pH 9.0, 50°C, malate oxidation, varied: cofactor.

Substrate in series [11]: O=C(O)CC(=O)C(=O)O
In kind it is biochemical, Nostoc sp. PCC 7120 = FACHB-418. To be noted: 0.1 mM NADH, pH 9.0, 50°C, reductive reaction.

Substrate in series [12]: CC(=O)C(=O)O
Format: biochemical, Nostoc sp. PCC 7120 = FACHB-418. As to conditions: 0.1 mM NADPH, 100 mM NH4Cl, 0.1 mM MnCl2, 50 mM KHCO3, pH 8.8, 52°C, reductive reaction.

Substrate in series [13]: NC(=O)C1=CN([C@@H]2O[C@H](COP(=O)(O)OP(=O)(O)OC[C@H]3O[C@@H](n4cnc5c(N)ncnc54)[C@H](OP(=O)(O)O)[C@@H]3O)[C@@H](O)[C@H]2O)C=CC1
Format: biochemical, Nostoc sp. PCC 7120 = FACHB-418. To be noted: 30 mM pyruvate, 100 mM NH4Cl, 0.1 mM MnCl2, 50 mM KHCO3, pH 8.8, 52°C, reductive reaction, varied: cofactor.

Substrate in series [14]: NC(=O)c1ccc[n+]([C@@H]2O[C@H](COP(=O)(O)OP(=O)(O)OC[C@H]3O[C@@H](n4cnc5c(N)ncnc54)[C@H](OP(=O)(O)O)[C@@H]3O)[C@@H](O)[C@H]2O)c1
In kind it is biochemical, Nostoc sp. PCC 7120 = FACHB-418. To be noted: 3 mM malate, 100 mM NH4Cl, 0.1 mM MnCl2, pH 8.8, 52°C, malate oxidation, varied: cofactor.

Where [15] appears, read: 8 mM NAD+, pH 8.5, 50°C, pH 8.5, 50.0 °C.
Setting [16] is: 0.5 mM NADP+, 100 mM NH4Cl, 0.5 mM MnCl2, pH 8.3, 50°C, pH 8.3, 50.0 °C.
Setting [17] is: 8 mM NAD+, pH 8.0, 50°C, pH 8.0, 50.0 °C.
Where [18] appears, read: 8 mM NAD+, pH 9.0, 50°C, pH 9.0, 50.0 °C.
Setting [19] is: 0.5 mM NADP+, 100 mM NH4Cl, 0.1 mM MnCl2, pH 8.8, 52°C, pH 8.8, 52.0 °C.

B1: ArMDH (Limnospira platensis NIES-46) (protein)
chain: MQMASSMFFPPSCHPTQVSIIGAGKVGGTLAQRIAESNVAHVVLLDVVEGLPQGVALDLMQAGSVEGHDRKILGTNDYADTAGSDVVVITAGRPRTPGMNRNDLIETNAPIVARAVTNAIASSPNAVIIIVTNPLDVMTYIAWQVSQIEPFRIMGMAGVLDSARFQAFIATELNVSVADVNATVMGSHGDLMVPLPRYSTVNGIPITELMDTETINRLIARTRNGGAEIVGLLKTGGAYYAPASSVRTMVESILLNRRRLLPTSAYLKGEYGMKDIFLGVPCWLGCRGVEAVLELNLTDNEREALNSCAQSVREGIEKADAVLAATAAV
notes: full length, GST-tagged (pGEX6P-1), tag kept, E. coli BL21(DE3)
As usually defined, the kcat is the number of substrate molecules converted per active site and unit of time at saturation. By kcat/Km is commonly meant the turnover number divided by the Michaelis constant. Regarding B1, the K0.5 is given as 0.034 ± 0.002 mM in “purified protein [1]” (setting [15]), 0.0085 ± 0.0025 mM in the series “purified protein [2]”, 0.30 ± 0.02 mM in the series “purified protein [3]” and 0.041 ± 0.001 mM in the series “purified protein [4]”. Also, the kcat in the series “purified protein [1]” (setting [15]) is 0.25 s⁻¹; in “purified protein [2]” it was 1.7 ± 0.1 s⁻¹; in “purified protein [3]”, 0.5 ± 0.01 s⁻¹; in the series “purified protein [4]”, 1.4 ± 0.03 s⁻¹. The kcat/Km is 7300 M⁻¹ s⁻¹ in the series “purified protein [1]” (setting [15]), 214000 ± 50000 M⁻¹ s⁻¹ in “purified protein [2]”, 1700 ± 100 M⁻¹ s⁻¹ in “purified protein [3]” and 34000 ± 400 M⁻¹ s⁻¹ in “purified protein [4]”.

B2: SyME (Synechocystis sp. PCC 6803 substr. Kazusa) (protein)
chain: MVSLTPNPSYSVSLLLELPNHAGTLASVTQAIADAGGSFGQISLIESNLKLTRREIAVDASSSEHAEKIIGAVKALDNVKLLKVSDRTFDLHRQGKISVVSRIPLTSQSDLAMAYTPGVGRICRAIAEDPEKVYSLTIKSNTVAVVTDGSAVLGLGNLGPEAALPVMEGKAMLFKEFAQLDAFPICLDTQDTEEIIRTVKAIAPVFGGVNLEDIAAPRCFEIEARLKKELNIPVFHDDQHGTAIVTLAALLNALKFVGKAMAAVRIVINGAGAAGLAIAELLKESGATDIWICDSKGIVGKHRTDLNSKKQSFAVDAEGTLADAMAGADVFLGVSAPGVVTKEMVQSMAKDPIVFAMANPIPEIQPELIQEDAAVIATGRSDYPNQINNVLAFPGVFRGAIDCRASIITTTMCIEAAKAIASLVHSNTLDSEHIIPSVFDNRVATTVASAVQLAARNEGVAGQ
notes: full length, His-tagged (pQE80L), E. coli BL21(DE3), synthesized gene
For the protein B2, in the series “purified protein [1]” (setting [16]), the K0.5 came to 0.46 ± 0.06 mM, the kcat was 77.2 s⁻¹ and the kcat/Km was determined as 169000 M⁻¹ s⁻¹. Besides, in “purified protein [5]”, the K0.5 came out at 0.015 ± 0.001 mM, the kcat came out at 55.7 ± 3.3 s⁻¹ and the kcat/Km worked out at 3.689e+06 ± 23000 M⁻¹ s⁻¹.

B3: SyMDH (Synechocystis sp. PCC 6803 substr. Kazusa) (protein)
chain: MNILEYAPIACQSWQVTVVGAGNVGRTLAQRLVQQNVANVVLLDIVPGLPQGIALDLMAAQSVEEYDSKIIGTNEYEATAGSDVVVITAGLPRRPGMSRDDLLGKNANIVAQGAREALRYSPNAILIVVTNPLDVMTYLAWKVTGLPSQRVMGMAGVLDSARLKAFIAMKLGACPSDINTLVLGGHGDLMLPLPRYCTVSGVPITELIPPQTIEELVERTRNGGAEIAALLQTGTAYYAPASSAAVMVESILRNQSRILPAATYLDGAYGLKDIFLGVPCRLGCRGVEDILEVQLTPEEKAALHLSAEAVRLNIDVALAMVSDG
notes: as for B2
Consider B3, for which the K0.5 in the series “purified protein [1]” (setting [17]) is on record as 1.61 ± 0.37 mM; in the series “purified protein [6]” it was 0.018 ± 0.002 mM; in “purified protein [7]”, 1.34 ± 0.30 mM; in the series “purified protein [8]”, 0.11 ± 0.002 mM. Further, the kcat came to 1 s⁻¹ in the series “purified protein [1]” (setting [17]), 6.6 ± 0.5 s⁻¹ in “purified protein [6]”, 1.8 ± 0.1 s⁻¹ in “purified protein [7]” and 4 ± 0.04 s⁻¹ in the series “purified protein [8]”. The kcat/Km in the series “purified protein [1]” (setting [17]) was found to be 640 M⁻¹ s⁻¹; in the series “purified protein [6]” it was 364000 ± 19000 M⁻¹ s⁻¹; in the series “purified protein [7]” it was 1400 ± 200 M⁻¹ s⁻¹; in “purified protein [8]”, 36000 ± 1000 M⁻¹ s⁻¹.

B4: NoMDH (Nostoc sp. PCC 7120 = FACHB-418) (protein)
chain: MFSSPDSPILHCLPRVAIIGAGRVGSTLAQRIAEKNLADVVLLDIVEGIPQGLALDLLEARGIELHNRQIIGTNNYADTSGSQIVVITAGFPRKPGMSRDDLLRTNAKIVIEAAKQAIAYSPYAIFIVVTNPLDVMTYLAWEATGLPRNRIMGMAGVLDSARFETFIALELGVLPADVKAMVLGSHGDLMVPLSRYATVNGIPITQLLDAVTIERLVERTRNGGAEIVELMQTGGAFFAPASATSLMVESILLNQSRLLPVSIYLQGEYDLKDVVIGVPCRLGLNGIESVIELNLSDSEREALHISAKSVQKNIERWRSLQNS
notes: full length, GST-tagged (pGEX6P-1), tag kept, E. coli BL21(DE3), 10°C expression
With B4, the K0.5 in “purified protein [1]” (setting [18]) was 1.88 ± 0.56 mM; in the series “purified protein [9]” it was 0.0093 ± 0.0001 mM; in “purified protein [10]”, 8.45 ± 1.95 mM; in the series “purified protein [11]”, 0.026 ± 0.002 mM. The kcat in the series “purified protein [1]” (setting [18]) was 3.5 s⁻¹; in “purified protein [9]”, 1.3 ± 0.1 s⁻¹; in “purified protein [10]”, 6.3 ± 0.5 s⁻¹; in the series “purified protein [11]”, 1.1 ± 0.03 s⁻¹. The kcat/Km in “purified protein [1]” (setting [18]) stood at 2000 M⁻¹ s⁻¹; in “purified protein [9]”, 142000 ± 8000 M⁻¹ s⁻¹; in the series “purified protein [10]”, 770 ± 100 M⁻¹ s⁻¹; in the series “purified protein [11]”, 42000 ± 2000 M⁻¹ s⁻¹.

B5: NoME (Nostoc sp. PCC 7120 = FACHB-418) (protein)
chain: MADLTPNSSFSVTLRLQIPNRVGMLASITQAIASSGGNLGQIDLIEQTRQVSLRDLTVDAASTEHAETIVQAVKAIPDIKLVSVYDRTFNLHRGGKISITSRIPLKSVSDLAMAYTPGVGRVCTAIAQDPSQVYNLTIKQNTVAIVTDGSAVLGLGNLGPHAALPVMEGKAMLFKEFAGLDAFPICLATQDTEEIIQAVKNIAPVFGGVNLEDIAAPRCFEIEKRLRDELDIPVFHDDQHGTAIVTLAALFNSLKLVQKSLADIRIVINGAGAAGVAIARLLRKAGAEKIWMCDSKGIISTTRTDLNEEKQEFAVKAQGTLAGAVQGADVFIGVSAPGVLTPEMVKSMAKDAIVFAMANPIPEIQPELISKDVAVIATGRSDYPNQINNVLAFPGVFRGALDCRAQTITTTMYLEAASAIASLVNPSDLSREHIIPSVFDERVVTAVAAAVQRAAREEGIARG
notes: as for B1
Take B5: the K0.5 in the series “purified protein [1]” (setting [19]) was found to be 0.41 ± 0.02 mM; in “purified protein [12]”, 6.55 ± 0.38 mM; in “purified protein [13]”, 0.0074 ± 0.001 mM; in the series “purified protein [14]” it was 0.014 ± 0.004 mM. Also, the kcat in “purified protein [1]” (setting [19]) was 30.3 s⁻¹; in the series “purified protein [12]”, 0.79 ± 0.03 s⁻¹; in “purified protein [13]”, 0.85 ± 0.03 s⁻¹; in the series “purified protein [14]”, 33.4 ± 3.2 s⁻¹. Further, the kcat/Km in “purified protein [1]” (setting [19]) came out at 75000 M⁻¹ s⁻¹; in “purified protein [12]”, 120 ± 3 M⁻¹ s⁻¹; in the series “purified protein [13]”, 116000 ± 10000 M⁻¹ s⁻¹; in the series “purified protein [14]” it was 2.53e+06 ± 436000 M⁻¹ s⁻¹.
